“And” between values parts separate entries of the source, which are not always exact repeats. Equal values may be shown once.

The target in data set [1] is ExoU(30–687) (Pseudomonas aeruginosa (clinical strain, GESPA 1999 collection)) (UniProt O34208). Nature of the data set: native MS; purified ExoU∶SpcU complex, 15 µM in 20 mM ammonium acetate, electrospray, positive mode, Micro-TOF-Q.
Data set [2] deals with the molecule itself. The data set is described as follows: crystal structure; co-expressed, co-purified ExoU(30–687)∶SpcU(1–127) complex; crystals in 0.1 M KNO3, 20% PEG 3350; SAD on the selenium edge, C2 cell, 2.94 Å.

As for “SpcU(1–127) (from UniProt O66100 1-127) (domain or fragment)”, the stoichiometry N (SpcU per ExoU (printed as ExoU∶SpcU)) in data set [1] was 1 and 2.

B1: SpcU(1–127) (domain or fragment)
chain: MIDTWLAQWGLRLPSSNDATLRLQPAEGPELVMERLEGGWLFVVELGLVPSGLPLGVILQLLQVNSPFSSLAPVKLAADDAGRLVLWAEARDGVDDVDALNRLHDRLREGHSRLVPLLEPTGELVPA
modifications: selenomethionine in the crystals (SAD on the selenium edge)
notes: SpcU, type IA T3SS chaperone of ExoU, Pseudomonas aeruginosa; full length is 1-137; stop codon introduced after residue 127; amplified from a clinical strain (GESPA 1999 collection); also called chaperone SpcU
Consider B1, for which the binding result in data set [2] was “binds”.

For the origin of these results see PMC3320612, “Structural Basis of Cytotoxicity Mediated by the Type III Secretion Toxin ExoU from Pseudomonas aeruginosa” (PLoS Pathogens, 2012).
